According to the supplement of paper PMC10567573:

B1: VDR (parent)
chain: LIKFQVGLKKLNLHEEEHVLLMAI
B2: C9orf9 (parent)
chain: LTKASLKPRGCSKPPWRPPGGKL

Variants of: B1
Assay: protein stability index of a GFP-peptide fusion (GPS, HEK-293T) (PSI 1-6); higher = more stable
Details: c terminus: a fixed tail appended
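Further: lentivirally expressed fusions sorted by FACS into six bins by GFP to DsRed ratio, PSI derived from sequencing read proportions per bin multiplied by bin number.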

Protein stability index, by site and new letter:
K3: G 3.98 | D 2.21 | W 2.91 | P 1.89 | T 2.97 | Q 1.21
E15: C 1.99 | Y 1.94 | Q 2.77 | T 3.96 | S 2.96 | G 2.92 | F 2.77 | W 3.87 | V 2.61 | A 2.52 | P 2.38 | L 3.71
F4: Y 2.64 | K 3.04 | W 1.5 | A 2.1 | E 2.15 | Q 2.09 | M 1.75 | D 3.17 | T 1.48 | H 1.91 | I 3.75 | L 4.2 | N 4.44 | C 3 | S 3.39 | P 1.31
N12: S 2.5 | E 3.9 | F 2.51 | I 2.19 | G 2.62 | T 2.92
K9: G 3.2 | I 1.03 | C 5.08 | F 3.38 | P 3.16 | R 2.63 | Y 4.29 | T 3.39 | V 3.6 | A 2.27 | H 1.59 | L 2.97 | Q 3.62 | M 3.2
E16: Q 1.57 | N 2.09 | Y 1.43 | T 2.81 | K 1.77 | P 3.81 | I 1.97 | C 3.87 | R 2.24
L1: V 2.24 | D 2.9 | Q 2.25 | M 3.33 | I 3.18 | E 1.56 | F 2.01 | N 2.01 | H 2.73
L8: K 2.85 | P 2.31 | M 3.04 | H 2.3 | N 2.82 | D 3.48 | F 3.06 | S 3.06 | W 1.89
V6: C 3.2 | A 2.24 | Q 1.74 | P 2.85 | K 2.01 | N 2.61 | F 3.19 | S 2.98 | G 2.2 | L 2.91 | W 1.54 | D 1.47 | H 4.18 | M 3.76
L13: Q 3.27 | I 2.39 | E 1.4 | P 2.73 | N 3.72 | F 1.7 | M 3.14 | H 2.3 | T 3.36 | V 3.02 | W 2.81 | D 1.74 | S 3.54 | K 3.2 | G 1.88 | R 3.69
K10: P 3.19 | T 2.23 | N 1.9 | L 4.27 | F 3.36 | A 3.24 | D 3.4 | H 1.38 | M 2.47 | V 1.83
H18: M 3.56 | K 3.13 | A 4.04 | E 2.33 | T 1.12 | I 2.93
I24: W 2.33 | Y 3.26 | R 2.35 | P 1.21 | T 1.85 | Q 2.48 | C 3.08 | F 3.74 | A 2.8 | D 1.87 | S 1.97 | K 2.69
V19: G 1.4 | T 2.52 | K 1.99 | A 1.58 | R 2.89 | I 1.93 | Q 3.04 | C 1.63 | W 1.04 | D 3.54 | F 2.52 | N 1.59 | H 3.1
L20: F 2.29 | K 1.91 | M 2.15 | A 2.05 | I 2.83 | G 4.03 | P 2.31 | T 2.4 | C 3.71 | E 2.24 | V 1.01 | Q 1.81 | D 1.19 | H 1.86 | Y 2.9
M22: G 2.01 | E 1.15 | C 2.61 | A 3.3 | D 1.17 | T 1.84 | W 2.81 | L 2.66 | F 2.88 | Y 2.25 | K 1.7 | S 1.68 | P 2.09 | H 2.06 | R 1.33
H14: E 4.65 | Y 2.93 | D 2.21 | K 2.66 | G 4.41 | C 2.28 | N 3.26 | Q 2.43 | P 2.53 | I 2.28
Q5: L 3.08 | H 2.65 | K 2.89 | D 4.34 | V 2.77 | N 1.79 | W 3.59
I2: R 4.27 | N 2.31 | A 3.06 | Q 3.14 | Y 2.93 | P 2.73 | L 3.02 | V 3 | T 2.77
E17: P 2.91 | L 1.8 | N 2.3 | Y 3.14 | H 2.34 | M 2.37 | D 2.28 | Q 2.7 | F 1.95
L21: C 3.18 | S 2.08 | V 4.64 | M 2.45 | D 1.85 | N 1.68 | Y 2.92 | G 2.76 | P 1.69
A23: L 3.49 | E 2.23 | Y 3.16 | D 3.29
L11: E 3.86 | F 2.14 | I 3.2 | P 2.34 | R 1.3 | W 2.1 | T 2.03 | D 2.78 | M 2.93 | A 2.56 | C 3.35 | Q 2 | Y 2.28
G7: T 2.82 | H 3.58 | D 2.61 | Y 2.11 | F 1.75 | W 3.47 | L 2.4 | M 3.9 | S 2.46 | K 2.84 | C 1.72

Variants of: B2
Assay: as above
Details: c terminus: native

Protein stability index: each site, then its substitutions
K3: L 2.36 | E 1.97 | V 2.86 | F 1.51 | N 2.08 | T 2.19 | G 1.74 | P 2.66 | H 2.28 | D 2.39 | S 1.91 | Q 2.6 | A 1.38 | Y 2.73
T2: S 2.59 | R 1.85 | N 2.21 | F 1.95 | L 2.26 | G 1.36 | C 1.96 | P 2.72 | D 1.78 | A 1.67 | K 2.28 | I 1.86 | V 1.58 | Q 1.32 | H 2.12
A4: S 2.02 | K 1.8 | G 1.36 | W 2.44 | F 1.75 | L 1.08 | C 1.63 | I 1.61 | P 3.55 | N 2 | T 1.78 | D 1.25 | Q 1.65 | M 1.69 | V 1.58 | H 1.96
L6: D 1.5
S5: K 2.43 | P 2.21 | M 1.83 | W 3.95 | F 2.03 | G 1.24 | H 1.55 | C 1.86 | V 2.5 | A 2.57 | T 2.08 | L 2.21 | I 2.9 | N 1.99 | E 1.81 | Q 3.27 | D 1.19
L1: Y 2.31 | P 2.06 | N 3.8 | F 2.29 | H 1.82 | S 2.78 | D 1.76 | G 2.5 | E 2.09 | W 1.89 | K 1.85 | R 2.13 | I 1.71 | Q 3.17 | V 1.8 | T 1.85 | M 1.86
